From the RNAGym collection of RNA variant scans (doi:10.1021/acssynbio.7b00057)

B1: Pistol ribozyme (parent)
chain: GGGUCGUUGUUCCAUAAUCGCGUGGAUAUGGCACGCAAGUUUCUACCGGGCACCGUAAAUGUCCGACUGGAGCCGUUCGGGCGGCUAUAAACAGACCUCAGGCCCGAAGCGUGGCGGCACCUGCCGCCGGUGGUAAAAAAGAUCGGAAGAGCACACGUCU

Variants of: B1
Assay: aptazyme ON/OFF ratio, guanine; higher = stronger switching; co-transcriptional cleavage with and without guanine

Point of comparison: U8A G9U U11G C12G C13U, “aptazyme ON/OFF ratio” value 1.16. Against it:
- U7C U8G G9C U10G C12A C13U — higher, 1.26
- U7A U8G G9A U10C C13A — lower, 1.03
- U7C U10C U11C C12U — higher, 1.31
- U8A G9U U10C C12A C13A — lower, 1.09
- U10C C12A — higher, 1.51
- U8C U10A C12A C13G — lower, 1.1
- U8A G9A U10C U11A C12A C13G — higher, 1.24
- U7G G9A U10A C12U C13G — higher, 1.24
- U8A U10G U11A C12U — lower, 1.12
- U7A G9C U11G C13A — lower, 1.13
- G9C U10A — higher, 1.98
- U7C U8C G9A U10G C12U C13U — higher, 1.42
- U7A U8C G9A U10G U11G C12A C13U — higher, 1.27
- U7A U8A U11A C12U C13A — higher, 1.29
- U8C G9C U11G C13G — higher, 1.19
- U8A G9A U10G U11C C13A — lower, 1.07
- U7C U8C G9C U10A U11C C12U C13U — higher, 1.17
- U7C U8G G9A U10C C13U — higher, 1.92
- U7C G9A C12G C13A — higher, 1.18
- U7G U8A G9A U11C C12G C13G — lower, 1.04
- U8G G9A U11G C12U — higher, 1.34
- U8C G9U U10A U11G — higher, 1.74
- U8G G9C U10A U11C C12G C13A — lower, 1.05
- U8G U11G C12U C13U — higher, 1.21
- U7C U8C G9U U11G C12A C13U — lower, 1.14
- U7C U8C G9A U10G U11A C12G — higher, 1.17
- U7G U8G G9C C12G C13U — higher, 1.35
- U7A U8G U10C U11A C12A C13G — higher, 1.53
- U7C U8A G9C U11A C12U C13U — higher, 1.2
- U7G U8G G9A U10G C12U C13G — higher, 1.31
- G9A U11A C12U C13A — higher, 1.37
- U7A U8C G9A U10A C12A C13G — higher, 1.22
- U10C U11C C12G — lower, 1.07
- U7A U8A G9U U10A U11A C12G C13U — lower, 1.04
- U7G U8C G9A U10G C12G — lower, 1.13
- U7A G9C U11A C12A C13U — lower, 1.11
- U8A U11A C12U C13A — higher, 1.23
- U7A U8A G9C U10G U11A C13U — lower, 1.04
- U7A G9A U10A U11A C12A C13G — lower, 1.13
- U7C G9A U11C C12U — higher, 1.17
- U7C U8A G9U U10G U11G C12U C13A — lower, 1.11
- U7A U8C G9U U10A U11C C13G — lower, 1.1
- U7C U10G U11A C12A C13U — lower, 1.09
- U7A U8G U11C C12U C13U — higher, 1.36
- U7C U8C G9C U10G U11C C12U C13A — lower, 1.07
- U10C C13A — lower, 1.06
- U7A U8A G9C U11A — higher, 1.25
- U7C U8A G9A U10G U11C C12U C13U — higher, 1.17
- U8A G9U U10C U11C C12U C13U — lower, 1.04
- U8A U10G U11A C12G C13A — higher, 1.2
- U7C U8A U10A U11G C12G C13G — lower, 1.13
- U7C U8A G9C U10G C12U C13G — higher, 1.17
- U7C G9C U10C U11G C12A C13G — lower, 1.05
- G9A U10A U11C C13G — lower, 1.09
- U7C U8G C12A — higher, 1.63
- U7A U8A G9U U10G U11C C12A C13U — higher, 1.21
- U7A U8A G9A U10G U11G C12U C13U — lower, 1.14
- U7A U10G U11G C12G C13U — higher, 1.22
- U8C G9U U10C U11A C12G — higher, 1.17
- U7G U8G U11C C12G C13G — higher, 1.23
- U7C U8A U11G C13G — lower, 1.06
- U7G U8A G9A U10C C12G — lower, 1.15
- U7A U8C G9C U10G — lower, 1.01
- U8C G9A U10G U11C C13U — lower, 1.06
- U8G G9A U10G U11A C12G C13A — higher, 1.21
- U7G U8C G9U U10A U11C C12A C13U — higher, 1.59
- U7A U11A C12U C13U — higher, 1.31
- U8G G9U C12U C13G — higher, 1.28
- U7A G9A U10A C12G C13A — higher, 1.25
- U7C U8G U10C U11A C13U — higher, 3.36
- U8G G9A U10A U11C C12A C13G — lower, 1.12
- U7A G9U U11G C12U — higher, 1.52
- U8A G9U U10A U11C C12A — lower, 1.07
- U7A U8C U11G C12G C13U — lower, 1.11
- U7C U8C G9C U10A U11A C12A C13A — lower, 1.09
- U7A U8A U10C U11C C13A — lower, 1.01
- G9C U10C C12A C13U — lower, 1.05
- U7A U10C U11G C12A C13G — higher, 1.23
- U8A G9C U10A U11C C12U C13A — lower, 1.07
- U7C U8G G9U U10A U11A C12A C13A — the same, 1.16
- U7C U8C G9C U10A U11A C12U C13A — lower, 1.03
- U7C U8A U10A C12U C13G — higher, 1.18
- U8G U10A C12U C13A — higher, 1.32
- U7A U8G U10C U11G C13U — higher, 1.53
- U7G U8G G9U U11A C13G — lower, 1.09
- U7A U8C G9U U10G U11C C12U C13A — higher, 1.2
- U7G G9A U10G U11C C12U C13G — lower, 1.08
- U7G U8C G9U U10C U11A C13A — higher, 1.49
- U7C G9U U10A U11G C12U C13U — higher, 1.18
- U7A U8G U10G U11G C12G C13A — higher, 1.45
- U7A U8G G9A U10G U11C C12A C13G — higher, 1.36
- U7A U8C U10C C13G — higher, 1.32
- U8G U10C U11G C12A C13A — the same, 1.16
- U7A G9U U10G U11A C12A C13U — higher, 1.18
- U7G U8A G9C U10G U11G C12A — lower, 1.08
- U7A G9C U10G U11G C12A — lower, 1.11
- U7C U8G G9A U11A C12U — higher, 1.26
- U7A U8A G9A U11C C12A C13U — higher, 1.22
- U8A G9U U11A C12A — higher, 1.28
- U7G G9A U10G C13A — lower, 1.11
- U8C G9C U11G C12G C13U — lower, 1.09
- U7G U8G U10A U11A C12G — higher, 1.22
- U8C U10A U11C — lower, 1.02
- U7G U8C G9C U10G C12U C13A — lower, 1.11
- U8C G9A U10G U11G C12U C13U — higher, 1.22
- U7G U8C G9A U10C C12G C13G — higher, 1.19
- U7G U8C G9A U11G C12U C13A — lower, 1.11
- U7G U8G G9A U10G C12A C13A — lower, 1.1
- U8A G9U U10A U11A C12U — higher, 1.32
- G9A U10C U11C C12A C13U — higher, 1.3
- U11A C12U C13U — higher, 1.45
- U8A G9U U10G U11C C12U — lower, 1.01
- U7A U8C G9U U10G U11C — lower, 1.03
- U7G G9A U10G U11C C12G C13A — lower, 1.08
- U7C U8A G9U U10G U11A C12A C13A — higher, 1.35
- U7G U8G G9C U11G C12A C13G — higher, 1.23
- G9C U10C U11C C12G C13U — lower, 1.04
- U7A G9A U10G U11A C12U C13A — lower, 1.09
- U8G G9U U10C U11C C12G C13A — lower, 1.07
- U7G U8C G9C U10A U11G C12G C13G — lower, 1.12
- U7C G9A U11A C12U C13A — lower, 1.07
- U7C G9C U11C C12U C13U — lower, 1.03
- U7G G9C U10C U11A C12G C13U — higher, 1.31
- U7C U8G G9U U11C C12U — higher, 1.21
- U8A G9C U11G C12G C13G — lower, 1.14
- U8A G9U U10G U11A C12U C13A — lower, 1.13
- U7C U8G G9U U10G U11A C12A C13A — higher, 1.18
- U7C U8G U10G U11A C12U C13U — higher, 1.23
- U7G U8G C12A C13A — higher, 1.31
- U8G U10C C12U C13U — higher, 1.17
- U8G G9U U10G U11A C12G C13U — lower, 1.04
- U8A G9C U10G U11G C12U C13G — lower, 1.08
- U7C U8G G9A U10G C12A C13U — higher, 1.36
- U7A U8G G9C U10C U11A C12G C13G — higher, 1.21
- U7C U8G G9U U10C U11C C13G — lower, 1.05
- U7G U8C G9C U11A C12G — higher, 1.2
- U7C G9U U10A U11A C12U C13A — higher, 1.27
- U7G G9A U11A C12G C13A — lower, 1.08
- U7C U8C G9C U10C U11A C12A C13G — lower, 1.06
- U8A G9A U10G C12A — higher, 1.2
- U8C G9U C12G C13G — higher, 1.17
- U7A U8C G9A U11G C12A — lower, 1.11
- U7C U8A G9U U11A C13A — higher, 1.2
- U7C U8G G9A U10A U11A C12U C13G — higher, 1.17
- U10C U11C — lower, 1.06
- U7G U8A G9A U11A C12A C13A — the same, 1.16
- U8G G9C U10G C13G — lower, 1.12
- U7G G9U U11A C13A — higher, 1.34
- U7G U8G G9A U11G C12G — higher, 1.39
- U7G U8A G9A U10G U11G C12A C13A — lower, 1.06
- U7A U8A G9C U10A C12U C13U — lower, 1.04
- U7G G9C U10C C12U C13A — higher, 1.21
- U8G G9U U10A U11C C13A — lower, 1.02
- U7G G9U U10C U11C C13G — lower, 1.07
- U8C U10C U11C C12G C13A — higher, 1.29
- U7A G9C U10A U11C C12U — lower, 1.07
- U7A U8G G9C U10C U11A C12U — lower, 1.13
- U7C U8A G9U U10G U11A C12G — higher, 1.21
- U7A U8G U11A C12G — higher, 1.2
- U7G U8G G9C C12U C13U — lower, 1.12
- U7G U8A G9A U10A U11A C13A — lower, 1.09
- U8A G9U U10C U11G C13A — lower, 1.12
- U8G G9U U11C C13A — lower, 1.1
- U8C U10G U11A C13U — higher, 1.18
- U7A U10A U11C C12G C13G — higher, 1.17
- G9A U10A U11G C12U C13U — higher, 1.22
